Source: PMC10579713, “Melatonin enhances KCl salinity tolerance by maintaining K+ homeostasis in Malus hupehensis”

Molecular target: T1, MdWRKY53 (Malus hupehensis (CDS amplified from; …, UniProt A0A498JJJ9 1-351)
T1 sequence: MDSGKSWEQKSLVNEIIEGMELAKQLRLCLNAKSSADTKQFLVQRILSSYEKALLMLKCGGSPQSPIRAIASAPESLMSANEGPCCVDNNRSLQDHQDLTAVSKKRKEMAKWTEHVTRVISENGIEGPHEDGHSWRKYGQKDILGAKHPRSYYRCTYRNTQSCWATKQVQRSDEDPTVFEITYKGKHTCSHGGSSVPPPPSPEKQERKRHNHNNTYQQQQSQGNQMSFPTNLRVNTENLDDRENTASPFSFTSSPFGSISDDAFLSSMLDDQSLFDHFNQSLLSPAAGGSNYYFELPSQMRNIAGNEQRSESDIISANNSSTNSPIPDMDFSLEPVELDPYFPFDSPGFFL
Assay: EMSA; unlabeled competitor reduced the binding; LightShift chemiluminescence EMSA kit (Thermo), manufacturer's instructions; buffer, salt, pH and temperature not stated
Conditions: protein: recombinant; tags: GST (N-terminal, pGEX6p-1); blunt

B1: MdGORK1 promoter W-box probe (dsDNA)
DNA 1: TTATGTCACCTTATGTTTTTGACACAATTTTTATAACGTTGACACAG
DNA 2: CTGTGTCAACGTTATAAAAATTGTGTCAAAAACATAAGGTGACATAA
binding result: binds

B2: MdNHX2 promoter W-box probe (dsDNA)
DNA 1: TGCACACGTCTTTCGAAGTTGACCAGATCAGTGTGCTTTGA
DNA 2: TCAAAGCACACTGATCTGGTCAACTTCGAAAGACGTGTGCA
binding result: binds
